The labels stand for the following.
B1: TPR t1 (parent)
chain: GACCAAUCUGCCCUCAGAGCUCGAGAACAUCUUCGGAUGCAGAGGAGGCAGGCUUCGGUGGCGCGAUAGCGCCAACGUCCUCAACCUCCAAUGCAUCCCACCACAUGAUGAUGCCUGAAGAGCCUUGGUUUUUUG

The variants in this data set derive from B1. Briefly: polymerase ribozyme fitness, log enrichment relative to wild type (log ratio); higher = more active; in vitro selection for triplet polymerase activity. In short, it runs like this:
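The heterodimeric triplet polymerase ribozyme's subunits were each mutagenized into PCR-built libraries and transcribed. Every library was selected once, in triplicate, by annealing with a biotinylated primer, the partner subunit and triplets, incubating frozen at −7 °C, gel-excising extended constructs, capturing on streptavidin beads and running RT-PCR. Input and output libraries were Illumina-sequenced, with genotypes kept only at ≥10 input reads and ≥1 read per output. Fitness, from inverse-variance-weighted replicate averages, is the base-2 logarithm of genotype enrichment over wild-type enrichment.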
Consider A43G G69C A90C C124G, for which the “polymerase ribozyme fitness (log ratio)” value is -0.889. As for A41U C72G U78A A83U, the figure is -2.44. Then G42C G71U G117A, with -4.04; and A43C G51U C56U G58A C80A C89G C101A G122U C123A G127A, with -6.31; and A41U G45A C56A G113A, with -3.04. As for A43U A111G, the figure is -0.575; as for G44C A95U G110A, -2.88; as for A41G G61U G120C, 0.573. G42C G71C C79U C80U C97A A121U: the “polymerase ribozyme fitness (log ratio)” value is -6.28.

As to G42U A46C C53A U92A A95C C104G U112A, the “polymerase ribozyme fitness (log ratio)” value is -7.25.

Consider G42A C94G U130G, for which the “polymerase ribozyme fitness (log ratio)” value is -3.82.

Turning to G42U C70U, the “polymerase ribozyme fitness (log ratio)” value is -2.26.

In the case of A43C C62G, the “polymerase ribozyme fitness (log ratio)” value is -5.4. Then G44A G69C C102A G122A, with -5.57; and A43U C53U A75G C88A U92C, with -3.05. Then G44A G45U G77A U129C, with -3.02.

On to G44A A105G, for which the “polymerase ribozyme fitness (log ratio)” value is -4.47. As to A43C A46U C101G C123U, the “polymerase ribozyme fitness (log ratio)” value was -4.18. As for G42U C49A U81G, the figure is -5.58; as for G44A G77C, -0.688. As for G42A G45U C85A A111U, the figure is -5.93.

Consider A43U C76A, for which the “polymerase ribozyme fitness (log ratio)” value was -2.98. On to G44A G60A U106G U112A, for which the “polymerase ribozyme fitness (log ratio)” value was -1.83. As for G42A C88G U132C, the figure is -2.38. With A43G C114G, the “polymerase ribozyme fitness (log ratio)” value was -3.66.

A43U C62G: the “polymerase ribozyme fitness (log ratio)” value is -3.88. Then A43U C62A, with -2.39. As for A43C U87A U106A, the “polymerase ribozyme fitness (log ratio)” value was -2.43. G42A A100C: the “polymerase ribozyme fitness (log ratio)” value is -4.08. As for A43C G52U, the figure is -3.56.

Take G44A C80A: the “polymerase ribozyme fitness (log ratio)” value is -3.93. On to A41U A66C C70U C97U, for which the “polymerase ribozyme fitness (log ratio)” value is -5.29.

With A43C C124A U125G, the “polymerase ribozyme fitness (log ratio)” value was -0.534. Take G42A C64G C114G G117C: the “polymerase ribozyme fitness (log ratio)” value is -7.17. As for A41U A46U, the figure is -2.26. In the case of G44A C49U U54G C70A U112G, the “polymerase ribozyme fitness (log ratio)” value is -6.09.

Turning to G42A C70U, the “polymerase ribozyme fitness (log ratio)” value is -2.09. As for A43U U92G C124U, the “polymerase ribozyme fitness (log ratio)” value was -0.53. Then G42C C49U, with -2.21. For the variant G42A U116C, the “polymerase ribozyme fitness (log ratio)” value was -3.35. As for G42C U96G, the figure is -1.41; as for A41U G51U C62U, -5.82; as for G42A C49U C56U U130G, -3.07.

As for A41U A43G C94U, the “polymerase ribozyme fitness (log ratio)” value was -3.17. In the case of A43U C49A C114G, the “polymerase ribozyme fitness (log ratio)” value is -1.78. As for G44A G52U U87A, the figure is -2.35; as for A41U A50G G77A, -0.647; as for A43U G60C C76G U78A G113C U125A, -4.6. Then G42A G45U C101A, with -4.7. Then A43U G71A A91G, with -3.35. Turning to G44C G63U, the “polymerase ribozyme fitness (log ratio)” value is -1.98. Turning to G42C G63U C123U U133A, the “polymerase ribozyme fitness (log ratio)” value was -1.98. As for A41U C56A U87C, the figure is -1.49; as for A43U U55C U92C, -2.54. Then G42C U54G, with -1.44; and A43C G69A U112C G135A, with -4.59; and G42A A111U, with -5.4. For the variant A41U U55A, the “polymerase ribozyme fitness (log ratio)” value was -1.08. Then G42U G44A C56U G61C A68U C85U G110U U116C, with -6.46; and A41U G60A C80U, with -3.75.

Take A41U G58C: the “polymerase ribozyme fitness (log ratio)” value is -1.16.

Consider A43C G47A C115U U116C, for which the “polymerase ribozyme fitness (log ratio)” value is -3.25. Then G44A G69A C89A C124G, with -3.8. Then A41U U87G, with -0.681.

For the variant A43G G61A, the “polymerase ribozyme fitness (log ratio)” value was -1.27. For A43G G61U, the “polymerase ribozyme fitness (log ratio)” value was -1.45. In the case of A41U A50C, the “polymerase ribozyme fitness (log ratio)” value is -1.53. Then A43U G63A A103U G117C U131A, with -6.74; and G42A G44U C73G U112A G122A, with -3.21; and A43U G93C G117C, with -4.65. As for G42U C72U, the “polymerase ribozyme fitness (log ratio)” value was -1.64.

On to A41G G69U G93C, for which the “polymerase ribozyme fitness (log ratio)” value is -0.214. With G42U G52A A75G C101U, the “polymerase ribozyme fitness (log ratio)” value is -0.635. As for A43U G71U A91G, the figure is -2.96; as for G44A A119G C123A, 0.608. As for G42U A43C G69C A74U U87G C89G, the figure is -5.66; as for A43G G113C, -3. Turning to A43G G113U, the “polymerase ribozyme fitness (log ratio)” value was -2.72. A43U G61U G93U: the “polymerase ribozyme fitness (log ratio)” value is -1.76. In the case of A43C G48C, the “polymerase ribozyme fitness (log ratio)” value is -2.99. For the variant A43U C49G U78A C115A, the “polymerase ribozyme fitness (log ratio)” value is -3.44. As to G44C C85U U92A C124U U133C, the “polymerase ribozyme fitness (log ratio)” value was -1.63. With G44A C104U, the “polymerase ribozyme fitness (log ratio)” value was -0.855.
